# Results published in article PMC2172161 (The Journal of Cell Biology, 2004).
# Molecular target: the molecule itself
# Experiment: fluorescence microscopy of purified complexes on slides
protein,measurement,value
His6Cdc12–Cdc3–Cdc10–Cdc11 complex (complex) chain 1: MSAATATAAPVPPPVGISNLPNQRYKIVNEEGGTFTVMLCGESGLGKTTFINTLFQTVLKRADGQQHRQEPIRKTVEIDITRALLEEKHFELRVNVIDTPGFGDNVNNNKAWQPLVDFIDDQHDSYMRQEQQPYRTKKFDLRVHAVLYFIRPTGHGLKPIDIETMKRLSTRANLIPVIAKADTLTAQELQQFKSRIRQVIEAQEIRIFTPPLDADSKEDAKSGSNPDSAAVEHARQLIEAMPFAIVGSEKKFDNGQGTQVVARKYPWGLVEIENDSHCDFRKLRALLLRTYLLDLISTTQEMHYETYRRLRLEGHENTGEGNEDFTLPAIAPARKLSHNPRYKEEENALKKYFTDQVKAEEQRFRQWEQNIVNERIRLNGDLEEIQGKVKKLEEQVKSLQVKKSHLK chain 2: MSLKEEQVSIKQDPEQEERQHDQFNDVQIKQESQDHDGVDSQYTNGTQNDDSERFEAAESDVKVEPGLGMGITSSQSEKGQVLPDQPEIKFIRRQINGYVGFANLPKQWHRRSIKNGFSFNLLCVGPDGIGKTTLMKTLFNNDDIEANLVKDYEEELANDQEEEEGQGEGHENQSQEQRHKVKIKSYESVIEENGVKLNLNVIDTEGFGDFLNNDQKSWDPIIKEIDSRFDQYLDAENKINRHSINDKRIHACLYFIEPTGHYLKPLDLKFMQSVYEKCNLIPVIAKSDILTDEEILSFKKTIMNQLIQSNIELFKPPIYSNDDAENSHLSERLFSSLPYAVIGSNDIVENYSGNQVRGRSYPWGVIEVDNDNHSDFNLLKNLLIKQFMEELKERTSKILYENYRSSKLAKLGIKQDNSVFKEFDPISKQQEEKTLHEAKLAKLEIEMKTVFQQKVSEKEKKLQKSETELFARHKEMKEKLTKQLKALEDKKKQLELSINSASPNVNHSPVPTKKKGFLR chain 3: MDPLSSVQPASYVGFDTITNQIEHRLLKKGFQFNIMVVGQSGLGKSTLINTLFASHLIDSATGDDISALPVTKTTEMKISTHTLVEDRVRLNINVIDTPGFGDFIDNSKAWEPIVKYIKEQHSQYLRKELTAQRERFITDTRVHAILYFLQPNGKELSRLDVEALKRLTEIANVIPVIGKSDTLTLDERTEFRELIQNEFEKYNFKIYPYDSEELTDEELELNRSVRSIIPFAVVGSENEIEINGETFRGRKTRWSAINVEDINQCDFVYLREFLIRTHLQDLIETTSYIHYEGFRARQLIALKENANSRSSAHMSSNAIQR chain 4: MSGIIDASSALRKRKHLKRGITFTVMIVGQSGSGRSTFINTLCGQQVVDTSTTILLPTDTSTEIDLQLREETVELEDDEGVKIQLNIIDTPGFGDSLDNSPSFEIISDYIRHQYDEILLEESRVRRNPRFKDGRVHCCLYLINPTGHGLKEIDVEFIRQLGSLVNIIPVISKSDSLTRDELKLNKKLIMEDIDRWNLPIYNFPFDEDEISDEDYETNMYLRTLLPFAIIGSNEVYEMGGDVGTIRGRKYPWGILDVEDSSISDFVILRNALLISHLHDLKNYTHEILYERYRTEALSGESVAAESIRPNLTKLNGSSSSSTTTRRNTNPFKQSNNINNDVLNPASDMHGQSTGENNETYMTREEQIRLEEERLKAFEERVQQELLLKRQELLQREKELREIEARLEKEAKIKQEE,binding result,binds
